Reference: paper PMC7960543 (The Journal of Biological Chemistry, 2021)

B1: recombinant soluble CD40L (residues 118–261) with no N-terminal KGD motif, wild type [not stated] / CD40 fragment (residues 21–144) fused to GST [not stated] (parent complex)
chain 1: QNPQIAAHVISEASSKTTSVLQWAEKGYYTMSNNLVTLENGKQLTVKRQGLYYIYAQVTFCSNREASSQAPFIASLCLKSPGRFERILLRAANTHSSAKPCGQQSIHLGGVFELQPGASVFVNVTDPSQVSHGTGFTSFGLLKL
chain 2: EPPTACREKQYLINSQCCSLCQPGQKLVSDCTEFTETECLPCGESEFLDTWNRETHCHQHKYCDPNLGLRVQQKGTSETDTICTCEEGWHCTSEACESCVLHRSCSPGFGVKQIATGVSDTICE

Variants of: B1
Experiment: ELISA; GST-CD40 (21–144) immobilized at 100 μg/ml in PBS; CD40L mutants 20 μg/ml; detection with anti-histidine Abs; read off a plot

Variant	response [OD450]
chain 1 QNPQIAAHVISEASSKTTSVLQWAETGYYTMSNNLVTLENGKQLTVKRQGLYYIYAQVTFCSNREASSQAPFIASLCLKSPGRFERILLRAANTHSSAKPCGQQSIHLGGVFELQPGASVFVNVTDPSQVSHGTGFTSFGLLKL	~0.32
chain 1 QNPQIAAHVISEASSKTTSVLQWAEKGYYTMSNNLVTPENGKQLTVKRQGLYYIYAQVTFCSNREASSQAPFIASLCLKSPGRFERILLRAANTHSSAKPCGQQSIHLGGVFELQPGASVFVNVTDPSQVSHGTGFTSFGLLKL	~0.24

More lines, now with the values ahead:

response [OD450]	Variant
~0.29	chain 1 QNPQIAAHVIRGASSKTTSVLQWAEKGYYTMSNNLVTLENGKQLTVKRQGLYYIYAQVTFCSNREASSQAPFIASLCLKSPGRFERILLRAANTHSSAKPCGQQSIHLGGVFELQPGASVFVNVTDPSQVSHGTGFTSFGLLKL
~0.35	chain 1 QNPQIAAHVISEASSKTTSVLQWAEKEYYTMSNNLVTLENGKQLTVKRQGLYYIYAQVTFCSNREASSQAPFIASLCLKSPGRFERILLRAANTHSSAKPCGQQSIHLGGVFELQPGASVFVNVTDPSQVSHGTGFTSFGLLKL
